Reference: publication doi:10.1101/2022.01.07.475460

Target: Recombinant Xenopus laevis Chromosomal Passenger Complex (INCENP, Aurora B 33-368, Survivin-B, Borealin/Dasra-A) (Xenopus laevis) (UniProt Q6GPL3)
Test: partitioning into condensates

Chain of UniProt Q6GPL3 (Q6GPL3 whole entry, looked up, tested part not stated, one chain of several): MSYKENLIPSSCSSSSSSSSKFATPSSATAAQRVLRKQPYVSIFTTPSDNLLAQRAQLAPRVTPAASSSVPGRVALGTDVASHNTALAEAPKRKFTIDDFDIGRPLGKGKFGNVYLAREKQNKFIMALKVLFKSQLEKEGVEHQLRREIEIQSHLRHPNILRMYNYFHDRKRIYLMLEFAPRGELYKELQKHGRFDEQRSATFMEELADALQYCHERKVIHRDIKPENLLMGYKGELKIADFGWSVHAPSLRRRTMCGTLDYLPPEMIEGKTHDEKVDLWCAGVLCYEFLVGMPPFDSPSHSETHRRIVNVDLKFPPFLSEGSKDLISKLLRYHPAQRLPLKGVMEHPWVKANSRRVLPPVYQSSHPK

α/β-tubulin dimers (from UniProt Q6B856 1-445) (complex)
enrichment in condensates (partition coefficient): 5 fold
